# Experimental data published in the RNAGym collection of RNA variant scans (doi:10.7554/elife.80360).
# B1: CPEB3 Ribozyme (parent)
# chain: GGGGGCCACAGCAGAAGCGUUCACGUCGCGGCCCCUGUCAGAUUCUGGUGAAUCUGCGAAUUCUGCUGU
# Variants of: B1
# Test: self-cleavage, relative activity (ratio to wild type); higher = more cleavage; co-transcriptional
row,Variant,self-cleavage
1,GGGGGCCAUAGCAGAAGCGUUCACGUCGCGGCUCCUGUCAGAUUCUGGUGAAUCUGCGAAUUCUGCUGU [C9U C33U],0.996
2,GGGGGCCAGAGCAGAAGCGUUCACGUCGCGGCCCCUGUCAGAUUCUGGUGAAUCUGCGAAUUCUGCCGU [C9G U67C],0.976
3,GGGGGCCAGAGCAGAAGCGUUCACGUCGCGGCCCCUGUCAGAUUCUGGUGAAUCUGCGAAUUCUGCGGU [C9G U67G],1.05
4,GGGGGCCAUAGCAGCAGCGUUCACGUCGCGGCCCCUGUCAGAUUCUGGUGAAUCUGCGAAUUCUGCUGU [C9U A15C],0.989
5,GGGGGCCAGAGCAGAAGCGUUCACGUCGCGGCCCCUGUCAGAUUCAGGUGAAUCUGCGAAUUCUGCUGU [C9G U46A],1.03
6,GGGGGCCAGAGCAGAAGCGUUCACGUCGCGGCCCCUGUCAGAAUCUGGUGAAUCUGCGAAUUCUGCUGU [C9G U43A],1.02
7,GGGGGCCAGAGCAGAAGCGUUCACGUCGCGGCCCCUGUCAGACUCUGGUGAAUCUGCGAAUUCUGCUGU [C9G U43C],0.996
8,GGGGGCCAGAGCAGAAGCGUUCACGUCGCGGCCCCUGUCAGAGUCUGGUGAAUCUGCGAAUUCUGCUGU [C9G U43G],0.955
9,GGGGGCCAGAGCAGAAGCGUUCACGUCGCGGCCCCUGUCAGAUUCUGGUGAAUCGGCGAAUUCUGCUGU [C9G U55G],0.865
10,GGGGGCCAGAGCAGAAGCGUUCACGUCGCGGCCCCUGUCAGAUUCUGGUGAAUCCGCGAAUUCUGCUGU [C9G U55C],0.877
11,GGGGGCCAUAGCAGAAGCGUUCACGUCGCGGCCACUGUCAGAUUCUGGUGAAUCUGCGAAUUCUGCUGU [C9U C34A],1.01
12,GGGGGCCAUAGCAGAAGCGUUCACGUCGCGGCCGCUGUCAGAUUCUGGUGAAUCUGCGAAUUCUGCUGU [C9U C34G],1.01
13,GGGGGCCAUAGCCGAAGCGUUCACGUCGCGGCCCCUGUCAGAUUCUGGUGAAUCUGCGAAUUCUGCUGU [C9U A13C],0.925
14,GGGGGCCAUAGCUGAAGCGUUCACGUCGCGGCCCCUGUCAGAUUCUGGUGAAUCUGCGAAUUCUGCUGU [C9U A13U],0.966
15,GGGGGCCAGAGCAGAAGCGUCCACGUCGCGGCCCCUGUCAGAUUCUGGUGAAUCUGCGAAUUCUGCUGU [C9G U21C],0.943
16,GGGGGCCAGAGCAGAAGCGUGCACGUCGCGGCCCCUGUCAGAUUCUGGUGAAUCUGCGAAUUCUGCUGU [C9G U21G],0.696
17,GGGGGCCAUGGCAGAAGCGUUCACGUCGCGGCCCCUGUCAGAUUCUGGUGAAUCUGCGAAUUCUGCUGU [C9U A10G],1.04
18,GGGGGCCAUCGCAGAAGCGUUCACGUCGCGGCCCCUGUCAGAUUCUGGUGAAUCUGCGAAUUCUGCUGU [C9U A10C],1.06
19,GGGGGCCAUUGCAGAAGCGUUCACGUCGCGGCCCCUGUCAGAUUCUGGUGAAUCUGCGAAUUCUGCUGU [C9U A10U],0.987
20,GGGGGCCAUAGCAGAAGCGUUCACGUUGCGGCCCCUGUCAGAUUCUGGUGAAUCUGCGAAUUCUGCUGU [C9U C27U],0.788

row,Variant,self-cleavage
1,GGGGGCCAUAGCAGAAGCGUUCACGUAGCGGCCCCUGUCAGAUUCUGGUGAAUCUGCGAAUUCUGCUGU [C9U C27A],0.891
2,GGGGGCCAUAGCAGAAGCGUUCACGUCGCGGCCCCUGUCAGAUUCUGGUGCAUCUGCGAAUUCUGCUGU [C9U A51C],1.03
3,GGGGGCCAUAGCAGAAGCGUUCACGUCGCGGCCCCUGUCAGAUUCUGGUGGAUCUGCGAAUUCUGCUGU [C9U A51G],1.02
4,GGGGGCCAUAGCAGAAGCGUUCACGUCGCGGCCCCUGUCGGAUUCUGGUGAAUCUGCGAAUUCUGCUGU [C9U A40G],1.03
5,GGGGGCCAUAGCAGAAGCGUUCACGUCGCGGCCCCUGUCUGAUUCUGGUGAAUCUGCGAAUUCUGCUGU [C9U A40U],0.915
6,GGGGGCCAGAGCAGAAGCGUUCACGUCGCGGCCCCUGUCAGAUUCUGGUGAAUCUGCGAAAUCUGCUGU [C9G U61A],1.01
7,GGGGGCCAGAGCAGAAGCGUUCACGUCGCGGCCCCUGUCAGAUUCUGGUGAAUCUGCGAACUCUGCUGU [C9G U61C],0.83
8,GGGGGCCAUAGCAGAAGCGUUCACGUCGCGGCCCCUGUCAGAUUCUGGUGAUUCUGCGAAUUCUGCUGU [C9U A52U],0.996
9,GGGGGCCAUAGCAGAAGCGUUCACGUCGCGGCCCCUGUCAGAUUCUGGUGACUCUGCGAAUUCUGCUGU [C9U A52C],1.01
10,GGGGGCCAUAGCAGAAGUGUUCACGUCGCGGCCCCUGUCAGAUUCUGGUGAAUCUGCGAAUUCUGCUGU [C9U C18U],0.927
11,GGGGGCCAUAGCAGAAGGGUUCACGUCGCGGCCCCUGUCAGAUUCUGGUGAAUCUGCGAAUUCUGCUGU [C9U C18G],0.283
12,GGGGGCCAUAGCAGAAGAGUUCACGUCGCGGCCCCUGUCAGAUUCUGGUGAAUCUGCGAAUUCUGCUGU [C9U C18A],0.355
13,GGGGGCCAGAGCAGAAGCGUUCACGGCGCGGCCCCUGUCAGAUUCUGGUGAAUCUGCGAAUUCUGCUGU [C9G U26G],0.93
14,GGGGGCCAGAGCAGAAGCGUUCACGCCGCGGCCCCUGUCAGAUUCUGGUGAAUCUGCGAAUUCUGCUGU [C9G U26C],0.964
15,GGGGGCCAGAGCAGAAGCGUUCACGACGCGGCCCCUGUCAGAUUCUGGUGAAUCUGCGAAUUCUGCUGU [C9G U26A],0.912
16,GGGGGCCAGAGCAGAAGCGUUCACGUCGCGGCCCCGGUCAGAUUCUGGUGAAUCUGCGAAUUCUGCUGU [C9G U36G],0.245
17,GGGGGCCAGAGCAGAAGCGUUCACGUCGCGGCCCCCGUCAGAUUCUGGUGAAUCUGCGAAUUCUGCUGU [C9G U36C],1.02
18,GGGGGCCAUAGCAGAAGCGUUCACGUCGCGGCCCCUGUCAGAUUCUGGUGAAUCUGCGACUUCUGCUGU [C9U A60C],0.303
19,GGGGGCCAUAGCAGAAGCGUUCACGUCGCGGCCCCUGUCAGAUUCUGGUGAAUCUGCGAGUUCUGCUGU [C9U A60G],0.983
